Assay results as given in US20260097122A1 (AUTOLUS, published 2026).

Target: T1, recombinant soluble CD22 ectodomain (human, UniProt P20273 20-687)
T1 construct: extracellular domain; Staining reagent used to detect the 9A8 CAR on T cells; also called soluble recombinant CD22 ectodomain
T1 sequence (looked up): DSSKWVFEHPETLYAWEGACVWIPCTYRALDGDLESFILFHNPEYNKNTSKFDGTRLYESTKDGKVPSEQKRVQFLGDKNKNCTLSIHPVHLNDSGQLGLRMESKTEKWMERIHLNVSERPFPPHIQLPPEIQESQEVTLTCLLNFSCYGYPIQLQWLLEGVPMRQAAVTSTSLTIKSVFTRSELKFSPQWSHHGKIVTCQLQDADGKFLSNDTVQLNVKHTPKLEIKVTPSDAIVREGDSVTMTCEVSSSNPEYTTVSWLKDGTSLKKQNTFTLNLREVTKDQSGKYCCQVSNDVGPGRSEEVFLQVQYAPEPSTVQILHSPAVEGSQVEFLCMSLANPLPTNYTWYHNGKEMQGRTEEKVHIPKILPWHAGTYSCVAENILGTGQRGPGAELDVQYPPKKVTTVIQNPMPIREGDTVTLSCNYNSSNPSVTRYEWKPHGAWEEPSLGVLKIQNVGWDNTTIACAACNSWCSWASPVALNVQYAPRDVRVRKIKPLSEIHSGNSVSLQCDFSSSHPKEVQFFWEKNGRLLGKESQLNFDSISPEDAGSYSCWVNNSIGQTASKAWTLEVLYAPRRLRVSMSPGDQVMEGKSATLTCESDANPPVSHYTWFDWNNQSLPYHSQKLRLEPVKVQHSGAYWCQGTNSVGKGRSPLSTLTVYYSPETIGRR
Assay: flow cytometry of CD19 CATCAR T cells stained with anti-idiotype and soluble recombinant CD22 ectodomain [cont.) F]
Source text: FIG. 4. AUTO1/22 CAR T cells enhanced activity in vivo. A) Schedule of the in vivo model. B) and C) NSG mice were intravenously injected with 1×10⁶ Nalm-6 WT (B) or Nalm-6 CD19KO (neg) cells (C), and treated with non-transduced (NT), AUTO1 or AUTO1/22 normal donor T cells. Serial bioluminescence imaging was taken. All cells expressed HA-tagged firefly Luciferase. D) and E) Spider plot showing bioluminescence flux for each mouse over time; Nalm-6 WT (D) or Nalm-6 CD19KO (neg) cells (E). F) In vivo expansion of the different CAR T cell populations. Differential engraftment of different CAR T cell populations. The proportion of the different subpopulation of CAR T cells was determined by staining for AUTO1 with anti-idiotype and 9A8CAR with soluble recombinant CD22 ectodomain. […]
Next, the function of CD19 CAR T cells (AUTO1) and CD19/22 co-transduced CAR T cells (AUTO1/22) in vivo was determined. […] NALM6 cells were first engrafted in NSG mice by tail-vein injection, and their engraftment determined by bioluminescence imaging (BLI). […] NALM6 burden was measured sequentially using BLI. […] NALM6 burden and CAR T-cell engraftment was determined by flow cytometry.
Finally, the proportion of AUTO1, CD22CAR and AUTO1/22 CAR T cells engrafted in mice at sacrifice was determined by flow-cytometry of marrow aspirate.

binding result: no binding
B1: CD19 CATCAR (second-generation CD19 CAR, aCD19cat-CD8STK-41BBZ) (other)
chain: QVQLQQSGPELVKPGASVKISCKASGYAFSSSWMNWVKQRPGKGLEWIGRIYPGDEDTNYSGKFKDKATLTADKSSTTAYMQLSSLTSEDSAVYFCARSLLYGDYLDYWGQGTTLTVSSGGGGSGGGGSGGGGSQIVLTQSPAIMSASPGEKVTMTCSASSSVSYMHWYQQKSGTSPKRWIYDTSKLASGVPDRFSGSGSGTSYFLTINNMEAEDAATYYCQQWNINPLTFGAGTKLELKRSDPTTTPAPRPPTPAPTIASQPLSLRPEACRPAAGGAVHTRGLDFACDIYIWAPLAGTCGVLLLSLVITLYCKRGRKKLLYIFKQPFMRPVQTTQEEDGCSCRFPEEEEGGCELRVKFSRSADAPAYQQGQNQLYNELNLGRREEYDVLDKRRGRDPEMGGKPRRKNPQEGLYNELQKDKMAEAYSEIGMKGERRRGKGHDGLYQGLSTATKDTYDALHMQALPPR
notes: Chimeric antigen receptor expressed on the surface of transduced T cells: CAT19 scFv, CD8 stalk spacer and transmembrane domain, 4-1BB-CD3 zeta endodomain; also called CAT19CAR; CATi9CAR
